The record followed here is patent US20240034813A1 (Janssen / Centocor, published 2024).

For experiment [1], the target named is T1, recombinant human EGFR/ErbB1/HER1 with C-terminal His tag, Cy5-labeled (human, UniProt P00533 25-645, Cy5 label (reacted with Cy5 Mono NHS Ester; sites not stated)).
T1 construct: Commercial protein; also called Cy5-EGFR; Cy5-labeled EGFR antigen; not shown: C-terminal His tag
The experiment is described as follows: competitive TR-FRET (Eu-amivantamab/Cy5-EGFR), EC50 ratio vs Reference Material; Ex. 11 drug product, 3 months at 5 C. From the text: (§1) In this procedure, varying concentrations of unlabeled bispecific EGFR-cMet antibody sample compete with donor fluorophore (Europium (Eu) chelate) labeled bispecific EGFR-cMet antibody for binding to an acceptor fluorophore (Cy5)-labeled EGFR antigen. Excitation of the donor fluorophore results in a transfer of energy to the bound acceptor fluorophore (FRET process). The resultant FRET is detected by emission of light at 665 nm using a microplate reader capable of measuring time-resolved fluorescence. Sample dose response curves are compared to the RM.
(§2) EGFR Binding Materials and Methods. Certified commercial EGFR, a recombinant human EGFR/ErbB1/HER1 with C-terminal His tag is reacted with certified commercial Cy5 Mono NHS Ester to produce Cy5-labeled EGFR. Validated bispecific EGFR-cMet antibody is reacted with certified commercial Europium (Eu) chelate to produce Eu-labeled bispecific EGFR-cMet antibody. […] Fluorescence is then measured by spectrophotometry at 665 nm, plotted against antibody concentration and analyzed by a four-parameter logistic model. The antibody concentration required to obtain half of the maximum fluorescence response (EC50) is determined for RM, assay control and samples. The potencies of assay control and samples are calculated based on the ratio of the sample (or control) and RM EC50 values and reported as a percentage activity relative to the RM.

The target of experiment [2] is T2, recombinant cMet/HGFR with c-terminal His-tag, Cy5-labeled (UniProt P08581 25-932, limits assumed, Cy5 label (reacted with Cy5 Mono NHS Ester; sites not stated)).
T2 construct: Commercial protein; also called Cy5-c-MET; Cy5-labeled c-MET antigen; not shown: C-terminal His-tag
The experiment is described as follows: competitive TR-FRET (Eu-amivantamab/Cy5-c-MET), EC50 ratio vs Reference Material; Ex. 11 drug product, 12 months at 5 C.
Source text: (§3) In this procedure, varying concentrations of unlabeled bispecific EGFR-cMet antibody sample compete with donor fluorophore (Europium (Eu) chelate) labeled bispecific EGFR-cMet antibody for binding to an acceptor fluorophore (Cy5)-labeled c-MET antigen. Excitation of the donor fluorophore results in a transfer of energy to the bound acceptor fluorophore (FRET process). The resultant FRET is detected by emission of light at 665 nm using a microplate reader capable of measuring time-resolved fluorescence. Sample dose response curves are compared to the Reference Material (RM).
as §2, with “c-MET Binding” for “EGFR Binding”, “commercial cMet,” for “commercial EGFR,”, “recombinant cMet/HGFR” for “recombinant human EGFR/ErbB1/HER1”, “with c-terminal His-tag” for “with C-terminal His tag”, “Cy5-labeled c-MET.” for “Cy5-labeled EGFR.”, “produce Eu labeled” for “produce Eu-labeled”

The target of experiment [3] is T2, recombinant cMet/HGFR with c-terminal …. The experiment is described as follows: competitive TR-FRET (Eu-amivantamab/Cy5-c-MET), EC50 ratio vs Reference Material; Ex. 11 drug product, 3 months at 25 C.
Source text: as §3
as §2, with “c-MET Binding” for “EGFR Binding”, “commercial cMet,” for “commercial EGFR,”, “recombinant cMet/HGFR” for “recombinant human EGFR/ErbB1/HER1”, “with c-terminal His-tag” for “with C-terminal His tag”, “Cy5-labeled c-MET.” for “Cy5-labeled EGFR.”, “produce Eu labeled” for “produce Eu-labeled”

Experiment [4] has the same target. The experiment is described as follows: competitive TR-FRET (Eu-amivantamab/Cy5-c-MET), EC50 ratio vs Reference Material; Ex. 2 Formulation 3 (acetate), T0, 25 C table.
Source text: as §3
as §2, with “c-MET Binding” for “EGFR Binding”, “commercial cMet,” for “commercial EGFR,”, “recombinant cMet/HGFR” for “recombinant human EGFR/ErbB1/HER1”, “with c-terminal His-tag” for “with C-terminal His tag”, “Cy5-labeled c-MET.” for “Cy5-labeled EGFR.”, “produce Eu labeled” for “produce Eu-labeled”

Experiment [5] shares this target. The experiment is described as follows: competitive TR-FRET (Eu-amivantamab/Cy5-c-MET), EC50 ratio vs Reference Material; Ex. 2 Formulation 2 (50 mM histidine), T0, 5 C table.
Source text: as §3
as §2, with “c-MET Binding” for “EGFR Binding”, “commercial cMet,” for “commercial EGFR,”, “recombinant cMet/HGFR” for “recombinant human EGFR/ErbB1/HER1”, “with c-terminal His-tag” for “with C-terminal His tag”, “Cy5-labeled c-MET.” for “Cy5-labeled EGFR.”, “produce Eu labeled” for “produce Eu-labeled”

The target is the same in experiment [6]. The experiment in a line: competitive TR-FRET (Eu-amivantamab/Cy5-c-MET), EC50 ratio vs Reference Material; Ex. 2 Formulation 1 (10 mM histidine), 3 months at 5 C.
Source text: as §3
as §2, with “c-MET Binding” for “EGFR Binding”, “commercial cMet,” for “commercial EGFR,”, “recombinant cMet/HGFR” for “recombinant human EGFR/ErbB1/HER1”, “with c-terminal His-tag” for “with C-terminal His tag”, “Cy5-labeled c-MET.” for “Cy5-labeled EGFR.”, “produce Eu labeled” for “produce Eu-labeled”

Experiment [7] deals with T1, recombinant human EGFR/ErbB1/HER1 with …. The experiment is described as follows: competitive TR-FRET (Eu-amivantamab/Cy5-EGFR), EC50 ratio vs Reference Material; Ex. 2 Formulation 1 (10 mM histidine), 3 months at 25 C.
Source text: as §1, §2

Experiment [8] concerns the target T2, recombinant cMet/HGFR with c-terminal …. The experiment in a line: competitive TR-FRET (Eu-amivantamab/Cy5-c-MET), EC50 ratio vs Reference Material; Ex. 2 Formulation 1 (10 mM histidine), 3 months at 25 C.
Source text: as §3
as §2, with “c-MET Binding” for “EGFR Binding”, “commercial cMet,” for “commercial EGFR,”, “recombinant cMet/HGFR” for “recombinant human EGFR/ErbB1/HER1”, “with c-terminal His-tag” for “with C-terminal His tag”, “Cy5-labeled c-MET.” for “Cy5-labeled EGFR.”, “produce Eu labeled” for “produce Eu-labeled”

B1: amivantamab (bispecific antibody, human IgG1, kappa)
heavy 1: not shown
light 1: not shown
heavy 2: not shown
light 2: DIQMTQSPSSVSASVGDRVTITCRASQGISNWLAWFQHKPGKAPKLLIYAASSLLSGVPSRFSGSGSGTDFTLTISSLQPEDFATYYCQQANSFPITFGQGTRLEIKRTVAAPSVFIFPPSDEQLKSGTASVVCLLNNFYPREAKVQWKVDNALQSGNSQESVTEQDSKDSTYSLSSTLTLSKADYEKHKVYACEVTHQGLSSPVTKSFNRGEC
notes: The samples tested were high concentration (160 mg/mL) formulations, fresh or stored or stressed; also called JNJ-61186372; bispecific EGFR-cMet antibody
Consider B1, for which, in experiment [1], the “EGFR Binding activity relative to Reference Material (%)” value was 74%. For the same molecule, the “cMET Binding activity relative to Reference Material (%)” value came out at 98% in experiment [2] and 94% in experiment [3]. Besides, the “cMET Binding % activity relative to RM” value in experiment [4] worked out at 94%; in experiment [5], 102%; in experiment [6] it was 100%; in experiment [8], 94%. Also, in experiment [7], the “EGFR Binding % activity relative to RM” value was found to be 100%.
